The values that follow come from the supplement of paper PMC10567573.

To fix the notation:
B1: KCNA3 (parent)
chain: YQSGGRIRRPVNVPIDIFSEEIRF
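Further: lentivirally expressed fusions sorted by FACS into six bins by GFP to DsRed ratio, PSI derived from sequencing read proportions per bin multiplied by bin number.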

The data set covers variants of B1. Kind of data set: protein stability index of a GFP-peptide fusion (GPS, HEK-293T) (PSI 1-6); higher = more stable. To be noted: c terminus: a fixed tail appended.
For YQSGGRIVRPVNVPIDIFSEEIRF [R8V], the protein stability index was 1.77.

Take YQSGGRIDRPVNVPIDIFSEEIRF [R8D]: the protein stability index was determined as 2.13.

Consider YQSGGRILRPVNVPIDIFSEEIRF [R8L], for which the protein stability index came out at 1.26.

Regarding YQSGGRITRPVNVPIDIFSEEIRF [R8T], the protein stability index was 2.07.

As for YQSPGRIRRPVNVPIDIFSEEIRF [G4P], the protein stability index worked out at 2.21.

For YQSYGRIRRPVNVPIDIFSEEIRF [G4Y], the protein stability index came to 1.79.

On to YQSHGRIRRPVNVPIDIFSEEIRF [G4H], for which the protein stability index came to 1.97.

Turning to YQSTGRIRRPVNVPIDIFSEEIRF [G4T], the protein stability index worked out at 2.28.

Consider YQSEGRIRRPVNVPIDIFSEEIRF [G4E], for which the protein stability index is 2.73.

For YQSIGRIRRPVNVPIDIFSEEIRF [G4I], the protein stability index was determined as 2.06.

Regarding YQSSGRIRRPVNVPIDIFSEEIRF [G4S], the protein stability index was 3.01.

For YQSKGRIRRPVNVPIDIFSEEIRF [G4K], the protein stability index was found to be 2.82.

In the case of YQSLGRIRRPVNVPIDIFSEEIRF [G4L], the protein stability index came out at 2.31.

As to YQSMGRIRRPVNVPIDIFSEEIRF [G4M], the protein stability index was found to be 2.1.

Consider YQSNGRIRRPVNVPIDIFSEEIRF [G4N], for which the protein stability index came to 1.92.

For YQSAGRIRRPVNVPIDIFSEEIRF [G4A], the protein stability index came out at 1.69.

As to YQSVGRIRRPVNVPIDIFSEEIRF [G4V], the protein stability index came to 2.05.

As for YQSWGRIRRPVNVPIDIFSEEIRF [G4W], the protein stability index amounted to 2.

With YQSFGRIRRPVNVPIDIFSEEIRF [G4F], the protein stability index amounted to 1.83.

YQSDGRIRRPVNVPIDIFSEEIRF [G4D]: the protein stability index is 2.07.

As to YQSRGRIRRPVNVPIDIFSEEIRF [G4R], the protein stability index is 2.15.

YQSCGRIRRPVNVPIDIFSEEIRF [G4C]: the protein stability index is 1.93.

For YQSQGRIRRPVNVPIDIFSEEIRF [G4Q], the protein stability index worked out at 2.37.

Take SQSGGRIRRPVNVPIDIFSEEIRF [Y1S]: the protein stability index was determined as 3.58.

Regarding MQSGGRIRRPVNVPIDIFSEEIRF [Y1M], the protein stability index came out at 2.42.

On to RQSGGRIRRPVNVPIDIFSEEIRF [Y1R], for which the protein stability index came to 2.67.

Turning to NQSGGRIRRPVNVPIDIFSEEIRF [Y1N], the protein stability index worked out at 2.89.

As to VQSGGRIRRPVNVPIDIFSEEIRF [Y1V], the protein stability index was 2.58.

Take GQSGGRIRRPVNVPIDIFSEEIRF [Y1G]: the protein stability index amounted to 2.83.

Consider WQSGGRIRRPVNVPIDIFSEEIRF [Y1W], for which the protein stability index came out at 2.48.

As for IQSGGRIRRPVNVPIDIFSEEIRF [Y1I], the protein stability index came to 2.53.

On to FQSGGRIRRPVNVPIDIFSEEIRF [Y1F], for which the protein stability index worked out at 1.83.

As to QQSGGRIRRPVNVPIDIFSEEIRF [Y1Q], the protein stability index was found to be 2.76.

In the case of PQSGGRIRRPVNVPIDIFSEEIRF [Y1P], the protein stability index came to 3.43.

Regarding KQSGGRIRRPVNVPIDIFSEEIRF [Y1K], the protein stability index was found to be 2.77.

On to HQSGGRIRRPVNVPIDIFSEEIRF [Y1H], for which the protein stability index came to 2.98.

For the variant EQSGGRIRRPVNVPIDIFSEEIRF [Y1E], the protein stability index was 2.74.

For the variant LQSGGRIRRPVNVPIDIFSEEIRF [Y1L], the protein stability index was determined as 2.08.

On to TQSGGRIRRPVNVPIDIFSEEIRF [Y1T], for which the protein stability index was 2.55.

In the case of YQSGGCIRRPVNVPIDIFSEEIRF [R6C], the protein stability index is 1.85.

On to YQSGGQIRRPVNVPIDIFSEEIRF [R6Q], for which the protein stability index worked out at 2.79.

With YQSGGFIRRPVNVPIDIFSEEIRF [R6F], the protein stability index was 1.65.

As to YQSGGHIRRPVNVPIDIFSEEIRF [R6H], the protein stability index is 2.23.

Consider YQSGGGIRRPVNVPIDIFSEEIRF [R6G], for which the protein stability index worked out at 1.85.

For the variant YQSGGWIRRPVNVPIDIFSEEIRF [R6W], the protein stability index stood at 1.86.

Consider YQSGGDIRRPVNVPIDIFSEEIRF [R6D], for which the protein stability index was 2.15.

Consider YQSGGAIRRPVNVPIDIFSEEIRF [R6A], for which the protein stability index amounted to 1.9.

Consider YQSGGEIRRPVNVPIDIFSEEIRF [R6E], for which the protein stability index worked out at 2.34.

Take YQSGGIIRRPVNVPIDIFSEEIRF [R6I]: the protein stability index worked out at 1.9.

Take YQSGGVIRRPVNVPIDIFSEEIRF [R6V]: the protein stability index stood at 1.95.

Take YQSGGNIRRPVNVPIDIFSEEIRF [R6N]: the protein stability index was found to be 2.11.

As to YQSGGLIRRPVNVPIDIFSEEIRF [R6L], the protein stability index stood at 1.31.

For the variant YQSGGPIRRPVNVPIDIFSEEIRF [R6P], the protein stability index amounted to 1.91.

Take YQSGGTIRRPVNVPIDIFSEEIRF [R6T]: the protein stability index came to 1.76.

For YQSGGYIRRPVNVPIDIFSEEIRF [R6Y], the protein stability index worked out at 1.86.

For the variant YQSGGKIRRPVNVPIDIFSEEIRF [R6K], the protein stability index worked out at 1.59.

As to YQSGGSIRRPVNVPIDIFSEEIRF [R6S], the protein stability index came out at 2.08.

In the case of YQSGGRIRRGVNVPIDIFSEEIRF [P10G], the protein stability index turned out to be 2.48.

For the variant YQSGGRIRRVVNVPIDIFSEEIRF [P10V], the protein stability index was found to be 1.91.

As to YQSGGRIRRSVNVPIDIFSEEIRF [P10S], the protein stability index was found to be 2.43.

Turning to YQSGGRIRRTVNVPIDIFSEEIRF [P10T], the protein stability index was 2.83.

Consider YQSGGRIRRWVNVPIDIFSEEIRF [P10W], for which the protein stability index is 2.7.

Regarding YQSGGRIRRNVNVPIDIFSEEIRF [P10N], the protein stability index was found to be 1.64.

With YQSGGRIRRRVNVPIDIFSEEIRF [P10R], the protein stability index is 1.64.

Regarding YQSGGRIRRYVNVPIDIFSEEIRF [P10Y], the protein stability index amounted to 1.76.

Turning to YQSGGRIRRIVNVPIDIFSEEIRF [P10I], the protein stability index was determined as 1.78.

Consider YQSGGRIRRMVNVPIDIFSEEIRF [P10M], for which the protein stability index is 1.62.

Regarding YQSGGRIRRCVNVPIDIFSEEIRF [P10C], the protein stability index worked out at 2.03.

For the variant YQSGGRIRRDVNVPIDIFSEEIRF [P10D], the protein stability index was determined as 1.87.

Regarding YQSGGRIRREVNVPIDIFSEEIRF [P10E], the protein stability index is 2.02.

Consider YQSGGRIRRAVNVPIDIFSEEIRF [P10A], for which the protein stability index stood at 2.31.

For the variant YQSGGRIRRLVNVPIDIFSEEIRF [P10L], the protein stability index is 1.6.

In the case of YQSGGRIRRFVNVPIDIFSEEIRF [P10F], the protein stability index came to 1.39.

In the case of YQSGGRIRRQVNVPIDIFSEEIRF [P10Q], the protein stability index was 1.53.

For YQSGGRIRRKVNVPIDIFSEEIRF [P10K], the protein stability index was 1.33.

With YQSGGRYRRPVNVPIDIFSEEIRF [I7Y], the protein stability index stood at 2.04.

As to YQSGGRERRPVNVPIDIFSEEIRF [I7E], the protein stability index came to 2.17.

Turning to YQSGGRQRRPVNVPIDIFSEEIRF [I7Q], the protein stability index came to 2.52.

For YQSGGRGRRPVNVPIDIFSEEIRF [I7G], the protein stability index is 2.41.

For YQSGGRDRRPVNVPIDIFSEEIRF [I7D], the protein stability index turned out to be 2.92.

Take YQSGGRKRRPVNVPIDIFSEEIRF [I7K]: the protein stability index was found to be 3.34.

YQSGGRRRRPVNVPIDIFSEEIRF [I7R]: the protein stability index came to 1.86.

Regarding YQSGGRMRRPVNVPIDIFSEEIRF [I7M], the protein stability index was 2.44.

YQSGGRTRRPVNVPIDIFSEEIRF [I7T]: the protein stability index stood at 1.91.

As for YQSGGRNRRPVNVPIDIFSEEIRF [I7N], the protein stability index was 1.73.

Consider YQSGGRPRRPVNVPIDIFSEEIRF [I7P], for which the protein stability index was determined as 2.51.

On to YQSGGRFRRPVNVPIDIFSEEIRF [I7F], for which the protein stability index came to 1.62.

Take YQSGGRWRRPVNVPIDIFSEEIRF [I7W]: the protein stability index came to 2.77.

Regarding YQSGGRLRRPVNVPIDIFSEEIRF [I7L], the protein stability index is 1.69.

For YQSGGRARRPVNVPIDIFSEEIRF [I7A], the protein stability index is 2.83.

YQSGGRHRRPVNVPIDIFSEEIRF [I7H]: the protein stability index was 1.57.

For the variant YQSGGRVRRPVNVPIDIFSEEIRF [I7V], the protein stability index is 2.4.

Take YQSGGRCRRPVNVPIDIFSEEIRF [I7C]: the protein stability index worked out at 2.38.

Take YQSGGRSRRPVNVPIDIFSEEIRF [I7S]: the protein stability index was determined as 2.38.
